Values quoted from earlier work, collected in article PMC10215765.

Target: Band 3 cytoplasmic N-terminal domain (Homo sapiens) (UniProt P02730)
UniProt P02730, sequence (P02730 1-379): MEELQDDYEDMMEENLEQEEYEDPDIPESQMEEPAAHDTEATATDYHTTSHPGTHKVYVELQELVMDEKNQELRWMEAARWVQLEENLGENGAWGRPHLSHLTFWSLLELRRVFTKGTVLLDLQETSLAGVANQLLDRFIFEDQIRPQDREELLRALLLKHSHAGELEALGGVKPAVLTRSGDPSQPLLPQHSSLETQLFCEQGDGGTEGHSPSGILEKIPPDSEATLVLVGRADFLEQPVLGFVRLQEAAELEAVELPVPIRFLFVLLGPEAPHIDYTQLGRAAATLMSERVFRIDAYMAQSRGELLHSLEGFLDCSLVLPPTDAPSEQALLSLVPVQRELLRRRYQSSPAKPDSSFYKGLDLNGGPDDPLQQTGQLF

Substance: Peroxiredoxin 2 (from UniProt P32119)
- Kd: 34 nM
